Consider eight molecules from publication PMC12508434.

The labels stand for the following.
B1: P1-CN crRNA + P1 target dsDNA (mixed)
RNA: UAAUUUCUACUAAGUGUAGAUAACCUGAUCAAGAUACCCAA
DNA 1: CTTAGAGTTCTTTAAACCTGATCAAGATACCCAACCAAAC
DNA 2: TGTTGTTTGGTTGGGTATCTTGATCAGGTTTAAAGAACTCTAAG
B2: P1-CN crRNA (structured_RNA)
RNA: B1 RNA
B3: P1-F2 crRNA (structured_RNA)
RNA: B1 RNA with U1G, U5G
B4: P1-F1 crRNA (structured_RNA)
RNA: B1 RNA with U1C, U5G
B5: P1-L2 crRNA (structured_RNA)
RNA: B1 RNA with A12C, U15C
B6: P1-FL2 crRNA (structured_RNA)
RNA: B1 RNA with U1G, U5G, A12C, U15C
B7: P1-L1 crRNA (structured_RNA)
RNA: B1 RNA with U11A, G14A, U15C
B8: P1-FL1 crRNA (structured_RNA)
RNA: B1 RNA with U1C, U5G, A12C, U15C

Substitutions are numbered along the chain they refer to.

The target in the first data set is dCas12a (DNase-dead; LbCas12a implied) (Lachnospiraceae bacterium? (only 'Lb' …, UniProt A0A5S8WF58 1-1228, D832A). As to the kind of experiment: EMSA. A general note: A gel shift assay detects complexes by their altered migration in electrophoresis.
Take B1: the binding result is recorded as “binds”.

In the next data set the target is LbCas12a (Lachnospiraceae bacterium? (only 'Lb' …, UniProt A0A5S8WF58 1-1228)). The data set can be described thus: SPR. (SPR reads the build-up and loss of mass on a sensor chip optically.)
Consider B2, for which the binding result was “binds”.
For B3, the binding result is given as “binds”.
With B4, the binding result is listed as “binds”.
Regarding B5, the binding result is listed as “binds”.
For B6, the binding result was “binds”.
As for B7, the binding result is on record as “binds”.
Take B8: the binding result was “binds”.
